Paper PMC7948472, “Structural basis for antigen recognition by methylated lysine–specific antibodies” (The Journal of Biological Chemistry, 2020)

T1: MAP3K2 peptide, NPIFEKFGKGGTYP (Homo sapiens)
T1 construct: MAP3K2 peptide surrounding Lys260, not methylated; also called non-methylated peptide; nonmethylated peptide; source: synthetic peptide (SCRUM Inc)
T1 chain: NPIFEKFGKGGTYP

B1: Fab E6 (Fab, V domains shown)
VH: DQSLEESGGRLVTPGTPLTLTCTVSGFSLNNNAMGWFRQAPGEGLEWIGAIYTDGSTYYASWAKGRFTISKTSTTIDLKMTSLTTEDTATYFCARHGYTYSFNLWGPGTLVTVSS
VL: DPVMTQTPPSVSAAVGGTVTISCQSSQSVYNNDNLAWYQQKPGQPPKRLIYGASTLDSGVPSRFKGSGSGTQFTLTISGVECDDAATYYCQGAYNVDIYPFGGGTEVVVK
notes: heavy chain of rabbit Fab clone E6; they are in PDB 6LDX chain H; light chain of rabbit Fab clone E6; they are in PDB 6LDX chain L; Purified on Ni-NTA, so a His tag is surmised; source: Expi293 cells, cotransfected, purified from supernatant (Ni-NTA, SEC)
B2: Fab F9 (Fab, V domains shown)
VH: QSVEESGGRLVTPGTPLTLTCTVSGFSLNSNAISWVRQAPGEGLEWVGAIYTHGSTVYANWAKGRFTISKTSTTIELKMTSLTTEDTATYFCARHGYTYSFNLWGPGTLVTVSS
VL: AQGLTQTPSPVSAALGGTVTINCQSSQSVYGNNRLAWYQQKPGQPPKRLIYQASTLDSGVPSRFSGSGSGTQFTLTISGVQCDDAATYYCQGGYSSGDAWAFGGGTEVVVK
notes: heavy chain of rabbit Fab clone F9; they are in PDB 6LDV chain H; light chain of rabbit Fab clone F9; they are in PDB 6LDV chain L; Purified on Ni-NTA, so a His tag is surmised; source: Expi293 cells, cotransfected, purified from supernatant (Ni-NTA, SEC)

Target: T1, MAP3K2 peptide, NPIFEKFGKGGTYP
Experiment: SPR; Biacore T200; each Fab immobilised on a CM5 chip by amine coupling; peptides injected at increasing concentrations; running buffer PBS with 0.005% Tween 20; global fitting of the curves, or steady-state analysis where kinetic parameters could not be determined (fast dissociation, low affinity)
Details: both partners purified

Binder | Kd | koff | kon
B1 | 350 nM | 0.18 ± 0.01 s⁻¹ | 500000 M⁻¹ s⁻¹
B2 | 4000 nM | 0.33 ± 0.04 s⁻¹ | 86000 M⁻¹ s⁻¹
